Laboratory results as given in the supplement of paper PMC10724198.
± gives the standard deviation of the averaged measurements.

The sequences below were run on Saccharomyces cerevisiae (assay: protein stability index of tFT-peptide fusion (C-terminal peptide) (PSI (0-1 scale)); higher = more stable (slower turnover)). Conditions: genetic background: doa10 deletion; temperature: 30 C.
Procedure: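 MPS profiling in S. cerevisiae of the tFT-X12 degron library: putative degron peptides plus stable controls, 12 aa, fused to the C-terminus of a sfGFP-mCherry timer. Cells are FACS-sorted into 8 mCherry/sfGFP bins and deep-sequenced. PSI runs from 0 (unstable) to 1 (stable). Backgrounds are wild type, das1Δ and doa10Δ at 30 °C, and wild type, das1Δ, cdc34-1 and cdc53-1 at 37 °C; 2-3 technical replicates each.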
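Further: PSI is a weighted mean of sequencing reads over stability bins, variants kept only with over 10 reads, mCherry proximal and sfGFP distal, peptide attached via GGGS linker.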

Sequence	protein stability index
SWLLLVFPLSVC	0.0982 ± 0.0044
TCFVKLLPFLVL	0.4425 ± 0.0032
TCRASLRRIVVA	0.222 ± 0.01
TFRVLREIILTA	0.151 ± 0.011
TPPFFDIFVVLL	0.456 ± 0.021
TPPIRCRLVRFL	0.2071 ± 0.0014
TSARPFLYSFRP	0.65 ± 0.016
TVLPCVLLFLRG	0.506 ± 0.022
VAVFFGCCVKVG	0.0877 ± 0.0089
VAVGFVLGLCVV	0.31 ± 0.012
VCFLLLLPALLI	0.422 ± 0.0094
VCNQVPGVIWFC	0.373 ± 0.0045
VCRFLVSVFSCV	0.38 ± 0.024
VCRVAAWLGWFV	0.0897 ± 0.012
VEFSLYVVFFLV	0.0993 ± 0.013
VFCPRACWEFVG	0.12 ± 0.0079
VFCSRSLISVVS	0.165 ± 0.014
VFFCLCLCLFFV	0.299 ± 0.0062
VFFGCIWSIVYN	0.181 ± 0.014
VFGARLFLIRLV	0.155 ± 0.027
VFLNVLDNNRLC	0.323 ± 0.011
VFLRFVLSFFLL	0.424 ± 0.02
VFLSLVFFFIIT	0.287 ± 0.013
VFRVLLSLFSTL	0.289 ± 0.019
VFRYWCGIFCLT	0.528 ± 0.027
VFSAGFSTISLF	0.6674 ± 0.0061

Sequence	protein stability index
VFSWLAFGFFCS	0.588 ± 0.024
VGELYRLRKLHV	0.222 ± 0.02
VGHVFLGVVWLV	0.0977 ± 0.0055
VGLRLSVIFVVI	0.195 ± 0.0031
VGVIGWGVLGVG	0.4866 ± 0.00011
VGVVGVRVLVVV	0.142 ± 0.01
VIGSFVRVFGIM	0.489 ± 0.041
VILMFELFGVRI	0.327 ± 0.019
VLCHLVLYVGDK	0.3413 ± 0.0027
VLDLLRHGFLWQ	0.689 ± 0.017
VLFFVLGVLVCL	0.319 ± 0.021
VLFIKKTLMRIQ	0.268 ± 0.025
VLFVLFASWFPR	0.3679 ± 0.0025
VLFVVLVASGLG	0.163 ± 0.01
VLPQSVWILVRV	0.144 ± 0.021
VLSFWAFLFLLF	0.31 ± 0.013
VLSWRAWGESGV	0.493 ± 0.03
VMFWRGVWLSFC	0.23 ± 0.0033
VNTRIVVRMRHL	0.339 ± 0.0049
VNWGFLVLLFQL	0.219 ± 0.029
VPLHPPPTVPYI	0.679 ± 0.011
VPLVQRARLRLF	0.109 ± 0.015
VPRLFSVIVVPV	0.359 ± 0.012
VRFRLLNVLASA	0.34 ± 0.015
VRGSFRRCLSIA	0.118 ± 0.027
VRRSVGGWSKVG	0.158 ± 0.023

Sequence	protein stability index
VRSTFVLGRWFA	0.133 ± 0.0064
VSFHFLLLVPCC	0.044 ± 0.0035
VSFHLGVIFALS	0.268 ± 0.0063
VSFLLLSYLCSF	0.172 ± 0.0023
VSWDMLYFWFIQ	0.307 ± 0.017
VSYAVIVLVFKG	0.2 ± 0.022
VTVWLISRVTGL	0.286 ± 0.035
VVCFGCLAFFLG	0.412 ± 0.043
VVFILLFFVFCR	0.296 ± 0.013
VVGITIMVFIIT	0.15 ± 0.018
VVIGAVLFVVVR	0.12 ± 0.0087
VVIWGMLLCGLG	0.326 ± 0.015
VVTICVASWSGL	0.362 ± 0.029
VVTVCIIRLAWG	0.189 ± 0.013
VVVLRRVIEVMQ	0.199 ± 0.0065
VVVRFCLGICFC	0.265 ± 0.0087
VWAWAVVVFVVL	0.171 ± 0.01
VWEKGVCGRMVG	0.639 ± 0.012
VWSFFTSFIRYI	0.106 ± 0.0018
VWVISLCIGGGG	0.213 ± 0.025
VWVLLCKYVILL	0.139 ± 0.021
VWWGVGVWLLVG	0.0694 ± 0.016
VYVVCFRLGCWV	0.172 ± 0.0025
WAFRLWWFFCLV	0.277 ± 0.01
WALPRILFLRLT	0.103 ± 0.00013
WDSCVGRRGIVA	0.388 ± 0.013

Same assay, conditions: genetic background: wild type; temperature: 30 C

Sequence	protein stability index
SWLLLVFPLSVC	0.0994 ± 0.021
TCFVKLLPFLVL	0.442 ± 0.013
TCRASLRRIVVA	0.255 ± 0.042
TFRVLREIILTA	0.178 ± 0.024
TPPFFDIFVVLL	0.48 ± 0.031
TPPIRCRLVRFL	0.219 ± 0.018
TSARPFLYSFRP	0.642 ± 0.019
TVLPCVLLFLRG	0.484 ± 0.037
VAVFFGCCVKVG	0.109 ± 0.024
VAVGFVLGLCVV	0.35 ± 0.021
VCFLLLLPALLI	0.393 ± 0.016
VCNQVPGVIWFC	0.412 ± 0.018
VCRFLVSVFSCV	0.399 ± 0.025
VCRVAAWLGWFV	0.0909 ± 0.024
VEFSLYVVFFLV	0.109 ± 0.018
VFCPRACWEFVG	0.143 ± 0.0095
VFCSRSLISVVS	0.192 ± 0.03
VFFCLCLCLFFV	0.314 ± 0.022
VFFGCIWSIVYN	0.229 ± 0.042
VFGARLFLIRLV	0.14 ± 0.041
VFLNVLDNNRLC	0.331 ± 0.046
VFLRFVLSFFLL	0.418 ± 0.013
VFLSLVFFFIIT	0.275 ± 0.019
VFRVLLSLFSTL	0.306 ± 0.023
VFRYWCGIFCLT	0.547 ± 0.019
VFSAGFSTISLF	0.666 ± 0.012

Sequence	protein stability index
VFSWLAFGFFCS	0.601 ± 0.023
VGELYRLRKLHV	0.249 ± 0.035
VGHVFLGVVWLV	0.101 ± 0.013
VGLRLSVIFVVI	0.213 ± 0.027
VGVIGWGVLGVG	0.481 ± 0.013
VGVVGVRVLVVV	0.154 ± 0.024
VIGSFVRVFGIM	0.506 ± 0.0097
VILMFELFGVRI	0.313 ± 0.051
VLCHLVLYVGDK	0.397 ± 0.052
VLDLLRHGFLWQ	0.6984 ± 0.0056
VLFFVLGVLVCL	0.338 ± 0.019
VLFIKKTLMRIQ	0.331 ± 0.027
VLFVLFASWFPR	0.361 ± 0.024
VLFVVLVASGLG	0.206 ± 0.026
VLPQSVWILVRV	0.155 ± 0.032
VLSFWAFLFLLF	0.282 ± 0.0089
VLSWRAWGESGV	0.468 ± 0.011
VMFWRGVWLSFC	0.197 ± 0.016
VNTRIVVRMRHL	0.348 ± 0.013
VNWGFLVLLFQL	0.25 ± 0.021
VPLHPPPTVPYI	0.675 ± 0.034
VPLVQRARLRLF	0.114 ± 0.012
VPRLFSVIVVPV	0.389 ± 0.03
VRFRLLNVLASA	0.389 ± 0.021
VRGSFRRCLSIA	0.142 ± 0.017
VRRSVGGWSKVG	0.194 ± 0.037

Sequence	protein stability index
VRSTFVLGRWFA	0.159 ± 0.018
VSFHFLLLVPCC	0.0565 ± 0.02
VSFHLGVIFALS	0.343 ± 0.021
VSFLLLSYLCSF	0.187 ± 0.019
VSWDMLYFWFIQ	0.304 ± 0.028
VSYAVIVLVFKG	0.22 ± 0.023
VTVWLISRVTGL	0.314 ± 0.01
VVCFGCLAFFLG	0.409 ± 0.028
VVFILLFFVFCR	0.25 ± 0.021
VVGITIMVFIIT	0.185 ± 0.027
VVIGAVLFVVVR	0.134 ± 0.035
VVIWGMLLCGLG	0.348 ± 0.018
VVTICVASWSGL	0.36 ± 0.027
VVTVCIIRLAWG	0.225 ± 0.018
VVVLRRVIEVMQ	0.253 ± 0.027
VVVRFCLGICFC	0.288 ± 0.017
VWAWAVVVFVVL	0.2 ± 0.035
VWEKGVCGRMVG	0.6609 ± 0.0066
VWSFFTSFIRYI	0.109 ± 0.022
VWVISLCIGGGG	0.225 ± 0.021
VWVLLCKYVILL	0.145 ± 0.014
VWWGVGVWLLVG	0.0673 ± 0.018
VYVVCFRLGCWV	0.2 ± 0.022
WAFRLWWFFCLV	0.257 ± 0.015
WALPRILFLRLT	0.0657 ± 0.0088
WDSCVGRRGIVA	0.42 ± 0.021
